In patent US20240010751A1 (EXELIXIS, published 2024):

Assays:
[1] = target: T1, CD47 and PD-L1 together on the surface of the same cells (CD47 PD-L1 TCA CHO cells); PD-L1 MDA-MB-231 cells; … (Homo sapiens (Human), UniProt Q08722 19-323; Q9NZQ7 19-290); experiment: flow cytometry on CD47 PD-L1 TCA CHO cells (both targets on the cells); BC1 format
[2] = target: CD47 on cells (target cells of the assays) (Homo sapiens (Human), UniProt Q08722 19-323); experiment: cell-based or functional assay
[3] = target: PD-L1 on cells (target cells of the assays) (Homo sapiens (Human), UniProt Q9NZQ7 19-290); experiment: cell-based or functional assay
[4] = target: T1, CD47 and PD-L1 together on the surface …; experiment: flow cytometry on Jeko-PD-L1 cells (both targets on the cells); BC44 format
[5] = target: T1, CD47 and PD-L1 together on the surface …; experiment: flow cytometry on PD-L1 MDA-MB-231 cells (both targets on the cells); BC44 format

Sequence of PD-L1 on cells (target cells of the assays) (Q9NZQ7 19-290 limits assumed): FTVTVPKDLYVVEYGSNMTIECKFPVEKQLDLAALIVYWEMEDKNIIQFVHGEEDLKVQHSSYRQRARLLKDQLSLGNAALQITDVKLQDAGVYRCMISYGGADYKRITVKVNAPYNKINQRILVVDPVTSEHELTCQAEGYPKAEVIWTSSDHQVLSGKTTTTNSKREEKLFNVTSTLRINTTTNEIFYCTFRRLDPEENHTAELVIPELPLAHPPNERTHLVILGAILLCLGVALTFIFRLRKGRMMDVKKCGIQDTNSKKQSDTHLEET

Row | Binder | EC50 [1] [pM] | IC50, CD47/SIRPα Inhibition Assay in PD-L1 MDA-MB-231 Cells [2] [pM] | IC50, PD-1/PD-L1 Inhibition Assay in Jeko-PD-L1 Cells [3] [pM] | IC50, PD-1/PD-L1 Inhibition Assay in MDA-MB-231 PD-L1 Cells [3] [pM] | EC50 [4] [pM] | EC50 [5] [pM]
1 | C40 x P24 bispecific antibody in a BC1 format (bispecific antibody, B-Body of four polypeptide chains, BC1 format; CD47 arm from C40, PD-L1 arm from P24; also called C40 × P24) chain 1: not shown chain 2: EVQLVESGGGLVQPGGSLRLSCAASGFTFSYYYIHWVRQAPGKGLEWVAWIDPYGHSTTYADSVKGRFTISADTSKNTAYLQMNSLRAEDTAVYYCARGGRGAMDYWGQGTLVTVSSASPREPQVYTDPPSRDELTKNQVSLTCLVKGFYPSDIAVEWESNGQPENNYKTTPPVLDSDGSFFLYSKLTVDKSRWQQGNVFSCSVMHEALHNHYTQKSLSLSGEC chain 3: DIQMTQSPSSLSASVGDRVTITCRASQSVSSAVAWYQQKPGKAPKLLIYSASSLYSGVPSRFSGSRSGTDFTLTISSLQPEDFATYYCQQVSYSPYTFGQGTKVEIKRTVAAPSVFIFPPSDEQLKSGTASVVCLLNNFYPREAKVQWKVDNALQSGNSQESVTEQDSKDSTYSLSSTLTLSKADYEKHKVYACEVTHQGLSSPVTKSFNRGECDKTHTCPPCPAPELLGGPSVFLFPPKPKDTLMISRTPEVTCVVVDVSHEDPEVKFNWYVDGVEVHNAKTKPREEQYNSTYRVVSVLTVLHQDWLNGKEYKCKVSNKALPAPIEKTISKAKGQPREPQVCTLPPSREEMTKNQVSLSCAVKGFYPSDIAVEWESNGQPENNYKTTPPVLDSDGSFFLVSKLTVDKSRWQQGNVFSCSVMHEALHNHYTQKSLSLSPGK chain 4: EVQLVESGGGLVQPGGSLRLSCAASGFTFDQYYIHWVRQAPGKGLEWVAEIYPAGSYTYYADSVKGRFTISADTSKNTAYLQMNSLRAEDTAVYYCARGPYSVRYALDYWGQGTLVTVSSASTKGPSVFPLAPSSKSTSGGTAALGCLVKDYFPEPVTVSWNSGALTSGVHTFPAVLQSSGLYSLSSVVTVPSSSLGTQTYICNVNHKPSNTKVDKKVEPPKSC | 1300 |  |  |  |  | 
2 | C40 x P31.2 bispecific antibody in a BC44 format (bispecific antibody, B-Body of four polypeptide chains, BC44 format; CD47 arm from C40, PD-L1 arm from P31.2; also called C40 × P31.2) chain 1: not shown chain 2: EVQLVESGGGLVQPGGSLRLSCAASGFTFSYYYIHWVRQAPGKGLEWVAWIDPYGHSTTYADSVKGRFTISADTSKNTAYLQMNSLRAEDTAVYYCARGGRGAMDYWGQGTLVTVSSASPREPQVYTLPPCRDELTKNQVSLTCLVKGFYPSDIAVEWESNGQPENNYKTTPPVLDSDGSFFLYSKLTVDKSRWQQGNVFSCSVMHEALHNHYTQKSLSLSPGK chain 3: DIQMTQSPSSLSASVGDRVTITCRASQSVSSAVAWYQQKPGKAPKLLIYSASSLYSGVPSRFSGSRSGTDFTLTISSLQPEDFATYYCQQFGAEPITFGQGTKVEIKRTVAAPSVFIFPPSDEQLKSGTASVVCLLNNFYPREAKVQWKVDNALQSGNSQESVTEQDSKDSTYSLSSTLTLSKADYEKHKVYACEVTHQGLSSPVTKSFNRGECDKTHTCPPCPAPELLGGPSVFLFPPKPKDTLMISRTPEVTCVVVDVSHEDPEVKFNWYVDGVEVHNAKTKPREEQYNSTYRVVSVLTVLHQDWLNGKEYKCKVSNKALPAPIEKTISKAKGQPREPQVCTLPPSREEMTKNQVSLSCAVKGFYPSDIAVEWESNGQPENNYKTTPPVLDSDGSFFLVSKLTVDKSRWQQGNVFSCSVMHEALHNHYTQKSLSLSPGK chain 4: EVQLVESGGGLVQPGGSLRLSCAASGFTFSSYYIHWVRQAPGKGLEWVATISSGGGFTYYADSVKGRFTISADTSKNTAYLQMNSLRAEDTAVYYCARGYTLTPVLDYWGQGTLVTVSSASTKGPSVFPLAPSSKSTSGGTAALGCLVKDYFPEPVTVSWNSGALTSGVHTFPAVLQSSGLYSLSSVVTVPSSSLGTQTYICNVNHKPSNTKVDKKVEPPKSC |  | 108 | 11.5 | 1500 | 227 | 690
3 | C56 x P22 bispecific antibody in a BC1 format (bispecific antibody, B-Body of four polypeptide chains, BC1 format; CD47 arm from C56, PD-L1 arm from P22; also called C56 × P22) chain 1: not shown chain 2: EVQLVESGGGLVQPGGSLRLSCAASGFTFTYYYIHWVRQAPGKGLEWVAFIDPYSGSTEYADSVKGRFTISADTSKNTAYLQMNSLRAEDTAVYYCARGGLYALDYWGQGTLVTVSSASPREPQVYTDPPSRDELTKNQVSLTCLVKGFYPSDIAVEWESNGQPENNYKTTPPVLDSDGSFFLYSKLTVDKSRWQQGNVFSCSVMHEALHNHYTQKSLSLSGEC chain 3: DIQMTQSPSSLSASVGDRVTITCRASQSVSSAVAWYQQKPGKAPKLLIYSASSLYSGVPSRFSGSRSGTDFTLTISSLQPEDFATYYCQQYYTSPYTFGQGTKVEIKRTVAAPSVFIFPPSDEQLKSGTASVVCLLNNFYPREAKVQWKVDNALQSGNSQESVTEQDSKDSTYSLSSTLTLSKADYEKHKVYACEVTHQGLSSPVTKSFNRGECDKTHTCPPCPAPELLGGPSVFLFPPKPKDTLMISRTPEVTCVVVDVSHEDPEVKFNWYVDGVEVHNAKTKPREEQYNSTYRVVSVLTVLHQDWLNGKEYKCKVSNKALPAPIEKTISKAKGQPREPQVCTLPPSREEMTKNQVSLSCAVKGFYPSDIAVEWESNGQPENNYKTTPPVLDSDGSFFLVSKLTVDKSRWQQGNVFSCSVMHEALHNHYTQKSLSLSPGK chain 4: EVQLVESGGGLVQPGGSLRLSCAASGFTFSSYYIHWVRQAPGKGLEWVAWITSHGYSTKYADSVKGRFTISADTSKNTAYLQMNSLRAEDTAVYYCARDSVIYGLDYWGQGTLVTVSSASTKGPSVFPLAPSSKSTSGGTAALGCLVKDYFPEPVTVSWNSGALTSGVHTFPAVLQSSGLYSLSSVVTVPSSSLGTQTYICNVNHKPSNTKVDKKVEPPKSC | 1100 |  |  |  |  | 
4 | C59 x P22 bispecific antibody in a BC1 format (bispecific antibody, B-Body of four polypeptide chains, BC1 format; CD47 arm from C59, PD-L1 arm from P22; also called C59 × P22) chain 1: not shown chain 2: EVQLVESGGGLVQPGGSLRLSCAASGFTFTSYYIHWVRQAPGKGLEWVAYIDSKHGTTQYADSVKGRFTISADTSKNTAYLQMNSLRAEDTAVYYCARGGRSAMDYWGQGTLVTVSSASPREPQVYTDPPSRDELTKNQVSLTCLVKGFYPSDIAVEWESNGQPENNYKTTPPVLDSDGSFFLYSKLTVDKSRWQQGNVFSCSVMHEALHNHYTQKSLSLSGEC chain 3: DIQMTQSPSSLSASVGDRVTITCRASQSVSSAVAWYQQKPGKAPKLLIYSASSLYSGVPSRFSGSRSGTDFTLTISSLQPEDFATYYCQQYYTSPYTFGQGTKVEIKRTVAAPSVFIFPPSDEQLKSGTASVVCLLNNFYPREAKVQWKVDNALQSGNSQESVTEQDSKDSTYSLSSTLTLSKADYEKHKVYACEVTHQGLSSPVTKSFNRGECDKTHTCPPCPAPELLGGPSVFLFPPKPKDTLMISRTPEVTCVVVDVSHEDPEVKFNWYVDGVEVHNAKTKPREEQYNSTYRVVSVLTVLHQDWLNGKEYKCKVSNKALPAPIEKTISKAKGQPREPQVCTLPPSREEMTKNQVSLSCAVKGFYPSDIAVEWESNGQPENNYKTTPPVLDSDGSFFLVSKLTVDKSRWQQGNVFSCSVMHEALHNHYTQKSLSLSPGK chain 4: EVQLVESGGGLVQPGGSLRLSCAASGFTFSSYYIHWVRQAPGKGLEWVAWITSHGYSTKYADSVKGRFTISADTSKNTAYLQMNSLRAEDTAVYYCARDSVIYGLDYWGQGTLVTVSSASTKGPSVFPLAPSSKSTSGGTAALGCLVKDYFPEPVTVSWNSGALTSGVHTFPAVLQSSGLYSLSSVVTVPSSSLGTQTYICNVNHKPSNTKVDKKVEPPKSC | 2300 |  |  |  |  | 
5 | C59 x P22 bispecific antibody in a BC44 format (bispecific antibody, B-Body of four polypeptide chains, BC44 format; CD47 arm from C59, PD-L1 arm from P22; also called C59 × P22) chain 1: not shown chain 2: EVQLVESGGGLVQPGGSLRLSCAASGFTFTSYYIHWVRQAPGKGLEWVAYIDSKHGTTQYADSVKGRFTISADTSKNTAYLQMNSLRAEDTAVYYCARGGRSAMDYWGQGTLVTVSSASPREPQVYTLPPCRDELTKNQVSLTCLVKGFYPSDIAVEWESNGQPENNYKTTPPVLDSDGSFFLYSKLTVDKSRWQQGNVFSCSVMHEALHNHYTQKSLSLSPGK chain 3: DIQMTQSPSSLSASVGDRVTITCRASQSVSSAVAWYQQKPGKAPKLLIYSASSLYSGVPSRFSGSRSGTDFTLTISSLQPEDFATYYCQQYYTSPYTFGQGTKVEIKRTVAAPSVFIFPPSDEQLKSGTASVVCLLNNFYPREAKVQWKVDNALQSGNSQESVTEQDSKDSTYSLSSTLTLSKADYEKHKVYACEVTHQGLSSPVTKSFNRGECDKTHTCPPCPAPELLGGPSVFLFPPKPKDTLMISRTPEVTCVVVDVSHEDPEVKFNWYVDGVEVHNAKTKPREEQYNSTYRVVSVLTVLHQDWLNGKEYKCKVSNKALPAPIEKTISKAKGQPREPQVCTLPPSREEMTKNQVSLSCAVKGFYPSDIAVEWESNGQPENNYKTTPPVLDSDGSFFLVSKLTVDKSRWQQGNVFSCSVMHEALHNHYTQKSLSLSPGK chain 4: EVQLVESGGGLVQPGGSLRLSCAASGFTFSSYYIHWVRQAPGKGLEWVAWITSHGYSTKYADSVKGRFTISADTSKNTAYLQMNSLRAEDTAVYYCARDSVIYGLDYWGQGTLVTVSSASTKGPSVFPLAPSSKSTSGGTAALGCLVKDYFPEPVTVSWNSGALTSGVHTFPAVLQSSGLYSLSSVVTVPSSSLGTQTYICNVNHKPSNTKVDKKVEPPKSC |  | 350 | 48.1 | 2500 |  | 1500
6 | C40 x P31.2 bispecific antibody in a BC1 format (bispecific antibody, B-Body of four polypeptide chains, BC1 format; CD47 arm from C40, PD-L1 arm from P31.2; also called C40 × P31.2) chain 1: not shown chain 2: EVQLVESGGGLVQPGGSLRLSCAASGFTFSYYYIHWVRQAPGKGLEWVAWIDPYGHSTTYADSVKGRFTISADTSKNTAYLQMNSLRAEDTAVYYCARGGRGAMDYWGQGTLVTVSSASPREPQVYTDPPSRDELTKNQVSLTCLVKGFYPSDIAVEWESNGQPENNYKTTPPVLDSDGSFFLYSKLTVDKSRWQQGNVFSCSVMHEALHNHYTQKSLSLSGEC chain 3: DIQMTQSPSSLSASVGDRVTITCRASQSVSSAVAWYQQKPGKAPKLLIYSASSLYSGVPSRFSGSRSGTDFTLTISSLQPEDFATYYCQQFGAEPITFGQGTKVEIKRTVAAPSVFIFPPSDEQLKSGTASVVCLLNNFYPREAKVQWKVDNALQSGNSQESVTEQDSKDSTYSLSSTLTLSKADYEKHKVYACEVTHQGLSSPVTKSFNRGECDKTHTCPPCPAPELLGGPSVFLFPPKPKDTLMISRTPEVTCVVVDVSHEDPEVKFNWYVDGVEVHNAKTKPREEQYNSTYRVVSVLTVLHQDWLNGKEYKCKVSNKALPAPIEKTISKAKGQPREPQVCTLPPSREEMTKNQVSLSCAVKGFYPSDIAVEWESNGQPENNYKTTPPVLDSDGSFFLVSKLTVDKSRWQQGNVFSCSVMHEALHNHYTQKSLSLSPGK chain 4: EVQLVESGGGLVQPGGSLRLSCAASGFTFSSYYIHWVRQAPGKGLEWVATISSGGGFTYYADSVKGRFTISADTSKNTAYLQMNSLRAEDTAVYYCARGYTLTPVLDYWGQGTLVTVSSASTKGPSVFPLAPSSKSTSGGTAALGCLVKDYFPEPVTVSWNSGALTSGVHTFPAVLQSSGLYSLSSVVTVPSSSLGTQTYICNVNHKPSNTKVDKKVEPPKSC | 130 |  |  |  |  | 
